Measured values from PMC3074162.

T1: ParB 65-139 (RHH domain) (Leifsonia xyli subsp. cynodontis …, UniProt Q6EEF9 65-139)
T1 sequence: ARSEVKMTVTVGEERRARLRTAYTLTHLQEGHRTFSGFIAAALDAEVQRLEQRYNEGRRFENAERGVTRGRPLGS


biological target: T1, ParB 65-139 (RHH domain); test: ITC

Binder | Kd [nM] | binding result
R1-18 (dsDNA) DNA 1: TGGCTATCCAGTAAAGTA DNA 2: TACTTTACTGGATAGCCA | 950 ± 680 | –
R2-18 (dsDNA) DNA 1: AGTAAAGTAGGAATAGGT DNA 2: ACCTATTCCTACTTTACT | 380 ± 100 | –
R4-16 (dsDNA) DNA 1: GAAAAGCCAGAAACAG DNA 2: CTGTTTCTGGCTTTTC | 530 ± 50 | –
R4-20 (dsDNA) DNA 1: TGGAAAAGCCAGAAACAGTG DNA 2: CACTGTTTCTGGCTTTTCCA | 68 ± 48 | –
R3-18-1A (dsDNA) DNA 1: AGAATAGGTGGAAAAGCC DNA 2: GGCTTTTCCACCTATTCT | 56 ± 12 | –
R3-18-1T (dsDNA) DNA 1: TGAATAGGTGGAAAAGCC DNA 2: GGCTTTTCCACCTATTCA | 67 ± 6 | –
R3-18-1C (dsDNA) DNA 1: CGAATAGGTGGAAAAGCC DNA 2: GGCTTTTCCACCTATTCG | 216 ± 22 | –
R3-18-2A (dsDNA) DNA 1: GAAATAGGTGGAAAAGCC DNA 2: GGCTTTTCCACCTATTTC | 59 ± 29 | –
R3-18-2T (dsDNA) DNA 1: GTAATAGGTGGAAAAGCC DNA 2: GGCTTTTCCACCTATTAC | 187 ± 20 | –
R3-18-2C (dsDNA) DNA 1: GCAATAGGTGGAAAAGCC DNA 2: GGCTTTTCCACCTATTGC | 189 ± 22 | –
R3-18-3T (dsDNA) DNA 1: GGTATAGGTGGAAAAGCC DNA 2: GGCTTTTCCACCTATACC | 123 ± 12 | –
R3-18-3G (dsDNA) DNA 1: GGGATAGGTGGAAAAGCC DNA 2: GGCTTTTCCACCTATCCC | 121 ± 31 | –
R3-18-3C (dsDNA) DNA 1: GGCATAGGTGGAAAAGCC DNA 2: GGCTTTTCCACCTATGCC | 89 ± 13 | –
R3-18-4T (dsDNA) DNA 1: GGATTAGGTGGAAAAGCC DNA 2: GGCTTTTCCACCTAATCC | 33 ± 8 | –
R3-18-4G (dsDNA) DNA 1: GGAGTAGGTGGAAAAGCC DNA 2: GGCTTTTCCACCTACTCC | 62 ± 15 | –
R3-18-4C (dsDNA) DNA 1: GGACTAGGTGGAAAAGCC DNA 2: GGCTTTTCCACCTAGTCC | 45 ± 12 | –
R3-18-5A (dsDNA) DNA 1: GGAAAAGGTGGAAAAGCC DNA 2: GGCTTTTCCACCTTTTCC | 27 ± 11 | –
R3-18-5G (dsDNA) DNA 1: GGAAGAGGTGGAAAAGCC DNA 2: GGCTTTTCCACCTCTTCC | 38 ± 9 | –
R3-18-5C (dsDNA) DNA 1: GGAACAGGTGGAAAAGCC DNA 2: GGCTTTTCCACCTGTTCC | 39 ± 13 | –
R3-18-6T (dsDNA) DNA 1: GGAATTGGTGGAAAAGCC DNA 2: GGCTTTTCCACCAATTCC | 37 ± 5 | –

Binder | Kd [nM] | binding result
R3-18-6G (dsDNA) DNA 1: GGAATGGGTGGAAAAGCC DNA 2: GGCTTTTCCACCCATTCC | 209 ± 77 | –
R3-18-6C (dsDNA) DNA 1: GGAATCGGTGGAAAAGCC DNA 2: GGCTTTTCCACCGATTCC | 60 ± 28 | –
R3-18-7A (dsDNA) DNA 1: GGAATAAGTGGAAAAGCC DNA 2: GGCTTTTCCACTTATTCC | 15 ± 5 | –
R3-18-7T (dsDNA) DNA 1: GGAATATGTGGAAAAGCC DNA 2: GGCTTTTCCACATATTCC | 35 ± 5 | –
R3-18-7C (dsDNA) DNA 1: GGAATACGTGGAAAAGCC DNA 2: GGCTTTTCCACGTATTCC | 36 ± 9 | –
R3-18-8A (dsDNA) DNA 1: GGAATAGATGGAAAAGCC DNA 2: GGCTTTTCCATCTATTCC | 30 ± 7 | –
R3-18-8T (dsDNA) DNA 1: GGAATAGTTGGAAAAGCC DNA 2: GGCTTTTCCAACTATTCC | 17 ± 6 | –
R3-18-8C (dsDNA) DNA 1: GGAATAGCTGGAAAAGCC DNA 2: GGCTTTTCCAGCTATTCC | 32 ± 8 | –
R3-18-9A (dsDNA) DNA 1: GGAATAGGAGGAAAAGCC DNA 2: GGCTTTTCCTCCTATTCC | 143 ± 31 | –
R3-18-9G (dsDNA) DNA 1: GGAATAGGGGGAAAAGCC DNA 2: GGCTTTTCCCCCTATTCC | 365 ± 57 | –
R3-18-9C (dsDNA) DNA 1: GGAATAGGCGGAAAAGCC DNA 2: GGCTTTTCCGCCTATTCC | 46 ± 11 | –
R3-18-10T (dsDNA) DNA 1: GGAATAGGTTGAAAAGCC DNA 2: GGCTTTTCAACCTATTCC | 18 ± 2 | –
R3-18-11A (dsDNA) DNA 1: GGAATAGGTGAAAAAGCC DNA 2: GGCTTTTTCACCTATTCC | 44 ± 21 | –
R3-18-11T (dsDNA) DNA 1: GGAATAGGTGTAAAAGCC DNA 2: GGCTTTTACACCTATTCC | 41 ± 9 | –
R3-18-11C (dsDNA) DNA 1: GGAATAGGTGCAAAAGCC DNA 2: GGCTTTTGCACCTATTCC | 56 ± 11 | –
R3-18-12T (dsDNA) DNA 1: GGAATAGGTGGTAAAGCC DNA 2: GGCTTTACCACCTATTCC | 57 ± 16 | –
R3-18-12G (dsDNA) DNA 1: GGAATAGGTGGGAAAGCC DNA 2: GGCTTTCCCACCTATTCC | 203 ± 43 | –
R3-18-12C (dsDNA) DNA 1: GGAATAGGTGGCAAAGCC DNA 2: GGCTTTGCCACCTATTCC | 58 ± 31 | –
R3-18-13T (dsDNA) DNA 1: GGAATAGGTGGATAAGCC DNA 2: GGCTTATCCACCTATTCC | 73 ± 22 | –
R3-18-13G (dsDNA) DNA 1: GGAATAGGTGGAGAAGCC DNA 2: GGCTTCTCCACCTATTCC | 64 ± 15 | –

Binder | Kd [nM] | binding result
R3-18-13C (dsDNA) DNA 1: GGAATAGGTGGACAAGCC DNA 2: GGCTTGTCCACCTATTCC | 46 ± 12 | –
R3-18-14T (dsDNA) DNA 1: GGAATAGGTGGAATAGCC DNA 2: GGCTATTCCACCTATTCC | 46 ± 8 | –
R3-18-14G (dsDNA) DNA 1: GGAATAGGTGGAAGAGCC DNA 2: GGCTCTTCCACCTATTCC | 42 ± 9 | –
R3-18-14C (dsDNA) DNA 1: GGAATAGGTGGAACAGCC DNA 2: GGCTGTTCCACCTATTCC | 33 ± 10 | –
R3-18-15T (dsDNA) DNA 1: GGAATAGGTGGAAATGCC DNA 2: GGCATTTCCACCTATTCC | 30 ± 6 | –
R3-18-15G (dsDNA) DNA 1: GGAATAGGTGGAAAGGCC DNA 2: GGCCTTTCCACCTATTCC | 88 ± 12 | –
R3-18-15C (dsDNA) DNA 1: GGAATAGGTGGAAACGCC DNA 2: GGCGTTTCCACCTATTCC | 81 ± 8 | –
R3-18-16A (dsDNA) DNA 1: GGAATAGGTGGAAAAACC DNA 2: GGTTTTTCCACCTATTCC | 22 ± 9 | –
R3-18-16T (dsDNA) DNA 1: GGAATAGGTGGAAAATCC DNA 2: GGATTTTCCACCTATTCC | 16 ± 6 | –
R3-18-16C (dsDNA) DNA 1: GGAATAGGTGGAAAACCC DNA 2: GGGTTTTCCACCTATTCC | 20 ± 7 | –
R3-18-17A (dsDNA) DNA 1: GGAATAGGTGGAAAAGAC DNA 2: GTCTTTTCCACCTATTCC | 84 ± 13 | –
R3-18-17T (dsDNA) DNA 1: GGAATAGGTGGAAAAGTC DNA 2: GACTTTTCCACCTATTCC | 30 ± 8 | –
R3-18-17G (dsDNA) DNA 1: GGAATAGGTGGAAAAGGC DNA 2: GCCTTTTCCACCTATTCC | 35 ± 11 | –
R3-18-18A (dsDNA) DNA 1: GGAATAGGTGGAAAAGCA DNA 2: TGCTTTTCCACCTATTCC | 46 ± 10 | –
R3-18-18T (dsDNA) DNA 1: GGAATAGGTGGAAAAGCT DNA 2: AGCTTTTCCACCTATTCC | 32 ± 6 | –
R3-18-18G (dsDNA) DNA 1: GGAATAGGTGGAAAAGCG DNA 2: CGCTTTTCCACCTATTCC | 70 ± 17 | –
R4-14 (dsDNA) DNA 1: AAAAGCCAGAAACA DNA 2: TGTTTCTGGCTTTT | – | no binding
R8-18 (dsDNA) DNA 1: GGAAAAGCTGGAATTGTT DNA 2: AACAATTCCAGCTTTTCC | 56 ± 12 | –
